Patent US8618251

Assays:
[1] = biological target: soluble hFcγRIIA^131R (human) (UniProt P12318); experiment: SPR Biacore T100; reference of the fold not given
[2] = biological target: soluble hFcγRIIA^131H (human) (UniProt P12318); experiment: SPR Biacore T100; reference of the fold not given
[3] = biological target: soluble hFcγRIIB (human) (UniProt P31994); experiment: SPR Biacore T100; reference of the fold not given
[4] = biological target: soluble hFcγRIIA^131R (human) (UniProt P12318); experiment: SPR Biacore T100, steady state, antibody immobilised
[5] = biological target: soluble hFcγRIIA^131H (human) (UniProt P12318); experiment: as above
[6] = biological target: soluble hFcγRIIB (human) (UniProt P31994); experiment: as above

Sequence of soluble hFcγRIIA^131R (human) (P12318 34-217 H167R): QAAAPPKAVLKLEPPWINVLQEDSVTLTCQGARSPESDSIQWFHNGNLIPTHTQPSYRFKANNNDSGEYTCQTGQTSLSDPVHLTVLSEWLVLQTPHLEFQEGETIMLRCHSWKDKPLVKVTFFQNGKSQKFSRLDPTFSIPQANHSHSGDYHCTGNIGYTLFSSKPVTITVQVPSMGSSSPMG
Sequence of soluble hFcγRIIA^131H (human) (P12318 34-217): as the sequence (P12318 34-217 H167R) above, with R134H counted along it
Sequence of soluble hFcγRIIB (human) (P31994 43-217 limits assumed): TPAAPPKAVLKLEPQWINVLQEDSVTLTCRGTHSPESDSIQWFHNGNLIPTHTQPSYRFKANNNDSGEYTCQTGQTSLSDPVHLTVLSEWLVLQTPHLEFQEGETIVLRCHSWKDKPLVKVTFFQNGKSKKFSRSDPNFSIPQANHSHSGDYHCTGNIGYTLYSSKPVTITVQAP

- Fold change in affinity [1]: 7.4 fold
- Fold change in affinity [2]: 2.6 fold
- Fold change in affinity [3]: 1.3 fold
- Kd [4]: 781 nM
- Kd [5]: 1340 nM
- Kd [6]: 8480 nM
B1: 4-4-20 hIgG1 Fc mutant L163P-S183G-K222E-G236A-N276D-S298G-T299A-D312G (antibody, part only; not given: 4-4-20 variable domains, not shown: another chain or arm of the molecule)
constant: ASTKGPSVFPLAPSSKSTSGGTAALGCLVKDYFPEPVTVSWNSGAPTSGVHTFPAVLQSSGLYSLGSVVTVPSSSLGTQTYICNVNHKPSNTKVDKRVEPKSCDETHTCPPCPAPELLAGPSVFLFPPKPKDTLMISRTPEVTCVVVDVSHEDPEVKFDWYVDGVEVHNAKTKPREEQYNGAYRVVSVLTVLHQGWLNGKEYKCKVSNKALPAPIEKTISKAKGQPREPQVYTLPPSRDELTKNQVSLTCLVKGFYPSDIAVEWESNGQPENNYKTTPPVLDSDGSFFLYSKLTVDKSRWQQGNVFSCSVMHEALHNHYTQKSLSLSPGK
